Experimental findings from US12570744 (AstraZeneca / MedImmune, dated 2026) are described below.

The term EC50 denotes the midpoint of the concentration-response curve. A high value points to lower potency in that assay. Usually Kd stands for the free concentration of one partner at which half of the binding sites on the other are occupied at equilibrium, for simple one-to-one binding. Broadly, the EC50 (read off the curve) is the midpoint of the concentration-response curve. Read a low EC50 (read off the curve) as higher potency in that assay. The term koff denotes the rate constant with which the complex falls apart. What is called kon is the rate constant with which the complex forms.

Where a chain is given by its changes, count along the chain named.

The target of assay [1] is T1, human TIGIT expressed on the cell surface (human, UniProt Q495A1 22-244).
T1 construct: whole, on cells; also called Jurkat PD-1^-TIGIT^+ cells; TIGIT^+ Jurkat cells
T1 sequence (looked up): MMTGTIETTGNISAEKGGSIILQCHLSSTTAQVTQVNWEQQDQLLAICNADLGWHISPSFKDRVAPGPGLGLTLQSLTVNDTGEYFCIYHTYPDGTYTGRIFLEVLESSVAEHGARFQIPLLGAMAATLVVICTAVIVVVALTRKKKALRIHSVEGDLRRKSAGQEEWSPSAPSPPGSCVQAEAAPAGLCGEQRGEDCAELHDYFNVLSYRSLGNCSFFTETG
In words: flow cytometry on TIGIT^+ Jurkat cells (the reference itself). (In flow cytometry, cells or beads pass a laser one at a time.)

The target in assay [2] is T1, human TIGIT expressed on the cell …. In words: flow cytometry on TIGIT^+ Jurkat cells, Experiment #2.
Assay [3] has the same target. In words: cell-based or functional assay.
For assay [4] the target is unchanged. In words: flow cytometry on TIGIT^+ Jurkat cells, mean of two experiments.
Assay [5] shares this target. In words: flow cytometry on TIGIT^+ Jurkat cells, Experiment #1.
Assay [6] has as its target T2, cynomolgus TIGIT overexpressed on 293 cells (cynomolgus, UniProt A0A7N9I9V4 89-312).
T2 construct: whole, on cells
In words: flow cytometry (MFI) on 293 cells overexpressing cynomolgus TIGIT; Kd row of the table under the graph, the concentration axis is [nM].

For assay [7], the target named is T1, human TIGIT expressed on the cell …. In words: flow cytometry (MFI) on 293 cells overexpressing human TIGIT.
Assay [8] shares this target. In words: flow cytometry (MFI) on 293 cells overexpressing human TIGIT; Kd row of the table under the graph, the concentration axis is [nM].
Assay [9] deals with T3, recombinant human TIGIT protein (human, UniProt Q495A1 22-141).
T3 construct: In the Octet assay it was used biotinylated on streptavidin sensors or in solution; Construct and tags are not described; also called huTIGIT; human TIGIT antigen
T3 sequence (looked up): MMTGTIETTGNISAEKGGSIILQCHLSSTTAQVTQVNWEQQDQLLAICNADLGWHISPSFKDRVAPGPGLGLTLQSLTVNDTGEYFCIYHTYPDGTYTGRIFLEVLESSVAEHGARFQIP
In words: SPR (BIAcore T200), PD-1/TIGIT DuetMab sample, huTIGIT as ligand. As to the method:
(§1) Binding experiments were carried out using a BIAcore T200 instrument (BIAcore).
A general note: Surface plasmon resonance follows binding to a sensor surface in real time, without labels.

The target of assay [10] is T4, cyTIGIT (cynomolgus TIGIT, recombinant) (cynomolgus, UniProt A0A7N9I9V4 89-209).
T4 construct: Ligand in the BIAcore assay; The construct is not described
T4 sequence (A0A7N9I9V4 entry or part of it): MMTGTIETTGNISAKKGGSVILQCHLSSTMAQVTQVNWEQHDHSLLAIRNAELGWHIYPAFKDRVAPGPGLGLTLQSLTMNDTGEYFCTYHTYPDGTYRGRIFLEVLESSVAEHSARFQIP
In words: SPR (BIAcore T200), PD-1/TIGIT DuetMab sample, cyTIGIT as ligand. As for the experimental part: as §1

Assay [11] deals with T5, muTIGIT (mouse TIGIT, recombinant) (mouse (printed as 'mu'), UniProt P86176 29-148, limits assumed).
T5 construct: Ligand in the BIAcore assay; The construct is not described
T5 sequence (looked up): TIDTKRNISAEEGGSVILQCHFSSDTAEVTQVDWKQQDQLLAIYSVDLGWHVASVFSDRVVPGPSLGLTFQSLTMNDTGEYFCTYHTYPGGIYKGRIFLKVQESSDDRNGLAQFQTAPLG
In words: SPR (BIAcore T200), PD-1/TIGIT DuetMab sample, muTIGIT as ligand. As for the experimental part:
as §1

Assay [12] addresses T6, human PD-1 expressed on the cell surface of engineered Jurkat cells (human, UniProt Q15116 25-288). In words: cell-based or functional assay.
Assay [13] has as its target T6, human PD-1 expressed on the cell …. In words: flow cytometry on PD-1^+ Jurkat cells, Experiment #2.
The target is the same in assay [14]. In words: flow cytometry on PD-1^+ Jurkat cells, Experiment #1.
Assay [15] shares this target. In words: flow cytometry on PD-1^+ Jurkat cells (the reference itself).
Assay [16] shares this target. In words: flow cytometry on PD-1^+ Jurkat cells, mean of two experiments.

T2 sequence (A0A7N9I9V4 entry or part of it): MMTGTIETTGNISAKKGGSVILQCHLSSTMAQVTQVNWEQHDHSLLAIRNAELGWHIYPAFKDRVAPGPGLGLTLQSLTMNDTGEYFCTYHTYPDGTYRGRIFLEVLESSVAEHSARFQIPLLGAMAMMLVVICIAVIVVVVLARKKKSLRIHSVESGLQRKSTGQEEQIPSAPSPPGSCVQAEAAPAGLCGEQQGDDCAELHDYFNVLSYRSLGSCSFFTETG
T6 sequence (Q15116 25-288, change not shown): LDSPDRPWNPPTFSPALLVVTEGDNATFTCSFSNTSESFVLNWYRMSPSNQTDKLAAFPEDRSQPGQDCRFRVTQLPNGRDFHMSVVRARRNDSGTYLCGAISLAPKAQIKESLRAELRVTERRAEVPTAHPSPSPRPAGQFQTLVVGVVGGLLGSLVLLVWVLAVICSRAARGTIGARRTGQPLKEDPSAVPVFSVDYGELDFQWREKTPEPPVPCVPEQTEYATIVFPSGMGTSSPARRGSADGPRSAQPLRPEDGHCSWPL

B1: monospecific anti-TIGIT (VAR1) bivalent mAb (antibody, V domains shown)
VH: QVQLVESGGGVVQPGRSLRLSCAASGFTFSSYAMHWVRQAPGKGLEWVAVISYAGEVKYYADSVKGRFTISRDNSKNTLYLQMNSLRAEDTAVYYCARDPLPLHYYGMDVWGQGTTVTVSS
VL: QSVLTQPPSASGTPGQRVTISCSGSSSNIGRRPVNWYQQLPGTAPKLLIYSQNQRPSGVPDRFSGSQSGTSASLAISGLQSEDEADYFCAVWDDIGRVLQLGGGTQLTVL
notes: Bivalent mAb; also called anti-TIGIT mAb; bivalent anti-TIGIT antibody
For the molecule B1, in assay [1], the “Fold Change vs. anti-TIGIT (mean EC50)” value was 1 fold. The molecule also displayed an EC50 in assay [2] of 0.147 nM. Further, in assay [3], the “EC50 (nM), NFAT-luciferase reporter, Experiment #1” value stood at 1.59 nM; the “EC50 (nM), NFAT-luciferase reporter, Experiment #2” value was determined as 2.85 nM; the “Fold Change of Mean EC50 vs. Anti-TIGIT” value amounted to 1 fold; the “Mean EC50 (nM), NFAT-luciferase reporter” value worked out at 2.22 nM. In [4], this molecule returned an EC50 of 0.119 nM. The molecule also registered an EC50 in assay [5] of 0.092 nM.

B2: VL GL + VH WT (VAR1 variant DuetMab) (bispecific antibody)
chain 1: EVQLVESGGGLVQPGGSLRLSCAASGFTFSDYGMHWVRQAPGKGLEWVAYISSGSYTIYSADSVKGRFTISRDNAKNSLYLQMNSLRAEDTAVYYCARRAPNSFYEYYFDYWGQGTTVTVSS
chain 2: QIVLTQSPATLSLSPGERATLSCSASSKHTNLYWSRHMYWYQQKPGQAPRLLIYLTSNRATGIPARFSGSGSGTDFTLTISSLEPEDFAVYYCQQWSSNPFTFGQGTKLEIK
chain 3: B1 VH with Q1E, S7T, V11L, V12I
chain 4: B1 VL with I29M
For B2, the figures for the equilibrium dissociation constant (Kd) in [6] and in assay [8] were 23.6 nM and 4.43 nM, respectively. The 50% effective concentration (EC50 (read off the curve)) in assay [7] was roughly 4 nM.

B3: VL WT + VH GL (VAR1 variant DuetMab) (bispecific antibody, V domains shown)
VH 1: B2 chain 1
VL 1: B2 chain 2
VH 2: B1 VH
VL 2: B1 VL with V3A, P8R, T13N, I29M, L40I, A75T, D86E, T108A
For the molecule B3, the Kd came to 10.8 nM in assay [6] and 3.09 nM in [8].

B4: VL GL + VH GL (VAR1 variant DuetMab) (bispecific antibody)
chain 1: B2 chain 1
chain 2: B2 chain 2
chain 3: B1 VH
chain 4: B1 VL with I29M
For B4, the equilibrium dissociation constant (Kd) came to 14.7 nM in [6] and 3.28 nM in assay [8].

B5: PD1-TIGIT duetMab LO115/P-VAR1(VHWT-VLWT) (bispecific antibody, V domains shown)
VH 1: B2 chain 1
VL 1: B2 chain 2
VH 2: B1 VH with Q1E, S7T, V11L, V12I
VL 2: B1 VL with V3A, P8R, T13N, I29M, L40I, A75T, D86E, T108A
notes: DuetMab format; also called parental VAR1; P-VAR1 w.t; DuetMab
Consider B5, for which the Kd worked out at 0.0099 nM in assay [9]; 11.2 nM in [6]; 32.1 nM in assay [10]; 2.3 nM in assay [11]; 2.56 nM in assay [8]. Further, the results for the off-rate (koff) in assay [9], in assay [10] and in assay [11] were 4.64e-05 s⁻¹, 0.0329 s⁻¹ and 0.00378 s⁻¹, respectively. For the same molecule, the on-rate constant (kon) in [9] was 4.67e+06 M⁻¹ s⁻¹; in [10] it was 1.03e+06 M⁻¹ s⁻¹; in assay [11], 1.66e+06 M⁻¹ s⁻¹. Also, the concentration for a half-maximal effect (EC50 (read off the curve)) in assay [7] was roughly 2 nM.

B6: monospecific anti-PD1 (LO115) bivalent mAb (antibody, V domains shown)
VH: B2 chain 1
VL: B2 chain 2
notes: Bivalent mAb; also called bivalent anti-PD-1 antibody; parental bivalent anti-PD-1 antibody
On to B6, for which, in assay [12], the “EC50 (nM), NFAT-luciferase reporter, Experiment #1” value stood at 1.93 nM; the “EC50 (nM), NFAT-luciferase reporter, Experiment #2” value turned out to be 4.14 nM; the “Fold Change of Mean EC50 vs. Anti-PD-1” value stood at 1 fold; the “Mean EC50 (nM), NFAT-luciferase reporter” value is 3.03 nM. The EC50 in assay [13] worked out at 0.985 nM. For the same molecule, in assay [14], the EC50 was 0.349 nM. For the same molecule, the “Fold Change vs. anti-PD-1 (mean EC50)” value in assay [15] was 1 fold. This molecule also registered an EC50 in assay [16] of 0.667 nM.
